Molecular target: T1, recombinant Tie2 extracellular domain-Fc fusion (UniProt Q02763 23-748, limits assumed)
T1 construct: extracellular domain; also called Tie2-Fc; Tie2 receptor-Fc fusion; not shown: Fc part
Experiment: BIAcore SPR, purified mAb captured on rabbit anti-mouse IgG Fc, Tie2-Fc injected
Protocol: The affinity of the purified mAbs was measured in the BIAcore. Using a flow rate of 10 μl/min, the mAb (diluted in HBS buffer) was injected over a rabbit anti-mouse IgG Fc surface, followed by buffer flow and the RU recorded. Tie2-Fc diluted in HBS buffer was then injected for 120 s followed by buffer flow for 240 s and regeneration of the sensor chip surface with an injection of 15 μl 0.1 M phosphoric acid. BIAcore software was used for association and dissociation-phase analysis. The murine monoclonal antibodies bound to soluble monomeric Tie2 receptor. The on-rates ($kass$) and off-rates ($kdiss$) were calculated.

T1 sequence (Q02763 23-748 limits assumed): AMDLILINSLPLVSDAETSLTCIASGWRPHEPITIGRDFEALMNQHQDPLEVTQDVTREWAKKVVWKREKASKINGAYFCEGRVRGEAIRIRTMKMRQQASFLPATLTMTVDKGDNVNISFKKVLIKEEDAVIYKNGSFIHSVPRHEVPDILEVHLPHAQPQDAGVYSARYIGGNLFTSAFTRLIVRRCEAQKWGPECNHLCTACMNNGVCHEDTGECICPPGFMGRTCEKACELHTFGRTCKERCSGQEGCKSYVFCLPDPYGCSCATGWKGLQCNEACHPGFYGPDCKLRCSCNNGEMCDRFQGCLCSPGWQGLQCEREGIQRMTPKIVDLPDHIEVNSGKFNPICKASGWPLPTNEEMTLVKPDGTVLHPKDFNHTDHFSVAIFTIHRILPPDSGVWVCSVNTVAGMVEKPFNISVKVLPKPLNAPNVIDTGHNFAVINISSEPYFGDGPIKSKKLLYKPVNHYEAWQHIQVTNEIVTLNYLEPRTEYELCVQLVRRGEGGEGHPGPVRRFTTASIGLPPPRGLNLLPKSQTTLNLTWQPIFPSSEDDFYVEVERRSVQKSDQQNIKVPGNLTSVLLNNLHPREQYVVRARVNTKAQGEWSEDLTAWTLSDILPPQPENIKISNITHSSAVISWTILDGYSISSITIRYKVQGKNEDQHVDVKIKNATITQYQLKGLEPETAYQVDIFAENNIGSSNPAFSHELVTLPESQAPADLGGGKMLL

- Kd: < 0.1 nM
B1: monoclonal antibody 12H8 (antibody, V domains shown)
VH: EVQLVESGGGLVKPGGSLKLSCAASGFTFSDYGMHWVRQAPEKGLEWVAYINSGSSTITYADTVKGRFTISRDNAKNTLFLQMTSLRSEDTAIYYCARGYYGPYYFDYWGQGTALTVSS
VL: DIVMTQSHKFMSTSVGDRVSFTCKASQNVGTAVAWYQQKPGQSPKLLIYWASSRHTGVPDRFTGSGSGTDFTLTITNVQSEDLADYFCQEYSSYPLTFGVGTKLELK
notes: also called mAb 12H8

— patent US6376653 (GlaxoSmithKline, dated 2002)
